The labels stand for the following.
B1: parental humanized anti-CTLA4 antibody 1 (antibody, human IgG1, kappa)
light: DIVMTQTPLSLSVTPGQPASISCRSSQSLLNSDGNTYLYWYLQKPGQSPQLLIYLVSKLGSGVPNRFSGSGSGTDFTLKISRVEAEDVGVYYCVQGTHDPWTFGGGTKVEIKRTVAAPSVFIFPPSDEQLKSGTASVVCLLNNFYPREAKVQWKVDNALQSGNSQESVTEQDSKDSTYSLSSTLTLSKADYEKHKVYACEVTHQGLSSPVTKSFNRGEC
heavy: not shown
notes: Humanized IgG1
B2: Antibody 1-1 (antibody, V domains shown)
VL: DIVMTQTPLSLSVTPGQPASISCRSSQSLLNSDGNTYLYWYLQKPGQSPQLLIYLVSKLGSGVPNRFSGSGSGTDFTLKISRVEAEDVGVYYCVQGTHDPWTFGGGTKVEIKR
VH: QVQLQESGPGLVKPSETLSLTCSVTYHTITSGYDWTWIRKPPGKGMEWIGYISYSGNTNYNPSLKSRVTISRDTSKNQFFLKLSSVTAADTAVYYCASMMVPHYYVMDAWGQGTLVTVSSA
notes: Humanized; wild type Fc region; Variable domains are stated for Antibody 1; full chains are not tied to the label Antibody 1-1; also called version of Antibody 1 having a wild type Fc region
B3: Antibody 1-2 (antibody, human IgG1, kappa)
light: B1 light
heavy: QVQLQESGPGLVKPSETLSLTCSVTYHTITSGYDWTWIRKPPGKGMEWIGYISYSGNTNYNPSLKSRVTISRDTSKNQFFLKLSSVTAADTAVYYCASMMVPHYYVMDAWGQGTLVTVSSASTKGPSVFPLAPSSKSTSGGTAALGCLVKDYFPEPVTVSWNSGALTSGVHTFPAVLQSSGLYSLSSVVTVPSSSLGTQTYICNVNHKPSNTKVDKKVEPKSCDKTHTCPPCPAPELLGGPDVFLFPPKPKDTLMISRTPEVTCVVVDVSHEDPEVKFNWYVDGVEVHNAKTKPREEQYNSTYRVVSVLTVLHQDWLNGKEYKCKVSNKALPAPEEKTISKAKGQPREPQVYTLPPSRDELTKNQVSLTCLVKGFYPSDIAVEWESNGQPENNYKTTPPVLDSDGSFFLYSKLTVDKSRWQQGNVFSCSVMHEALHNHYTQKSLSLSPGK
notes: also called version of Antibody 1 having a S239D mutation and an I332E mutation in the Fc region
B4: Antibody 2-1 (antibody, V domains shown)
VL: EIVLTQSPDFQSVTPKEKVTITCSANSALSYMYWYQQKPDQSPKLWVHGTSNLASGVPSRFSGSGSGTDFTLTINSLEAEDAATYYCHHWSNTQWTFGGGTKVEIKR
VH: QVQLVQSGAEVKKPGSSVKVSCKASGYTFTNYFMNWVRQAPGQGLEWMGRVDPEQGRADYAEKFKKRVTITADKSTSTAYMELSSLRSEDTAVYYCARRAMDNYGFAYWGQGTLVTVSSA
notes: Wild-type Fc region; Variable domains are stated for Antibody 2-6, another version of Antibody 2 that differs in the Fc region only; also called version of Antibody 2 having a wild-type Fc region
B5: Antibody 2-2 (antibody, V domains shown)
VL: B4 VL
VH: B4 VH
notes: Fc region with S239D and I332E; also called version of Antibody 2 having a S239D mutation and an I332E mutation in the Fc region; unmasked Antibody 2-2
B6: Antibody 2-4 (antibody, V domains shown)
VL: B4 VL
VH: B4 VH
notes: Fc with S239D, I332E, A330L; also called version of Antibody 2 having S239D, I332E, and A330L mutations in the Fc region
B7: Antibody 2-5 (antibody, V domains shown)
VL: B4 VL
VH: B4 VH
notes: see m21; also called version of Antibody 2 having S239D, I332E, A330L mutations in the Fc region, and two hinge region mutations
B8: Antibody 2-3 (antibody, V domains shown)
VL: B4 VL
VH: B4 VH
notes: see m21; also called version of Antibody 2 having a S239D mutation, an I332E mutation in the Fc region, and two hinge region mutations
B9: Antibody 2-16 (antibody, human IgG1, kappa)
light: ACPFPALELCSSGGSGPDSGGFMLTSGGEIVLTQSPDFQSVTPKEKVTITCSANSALSYMYWYQQKPDQSPKLWVHGTSNLASGVPSRFSGSGSGTDFTLTINSLEAEDAATYYCHHWSNTQWTFGGGTKVEIKRTVAAPSVFIFPPSDEQLKSGTASVVCLLNNFYPREAKVQWKVDNALQSGNSQESVTEQDSKDSTYSLSSTLTLSKADYEKHKVYACEVTHQGLSSPVTKSFNRGEC
heavy: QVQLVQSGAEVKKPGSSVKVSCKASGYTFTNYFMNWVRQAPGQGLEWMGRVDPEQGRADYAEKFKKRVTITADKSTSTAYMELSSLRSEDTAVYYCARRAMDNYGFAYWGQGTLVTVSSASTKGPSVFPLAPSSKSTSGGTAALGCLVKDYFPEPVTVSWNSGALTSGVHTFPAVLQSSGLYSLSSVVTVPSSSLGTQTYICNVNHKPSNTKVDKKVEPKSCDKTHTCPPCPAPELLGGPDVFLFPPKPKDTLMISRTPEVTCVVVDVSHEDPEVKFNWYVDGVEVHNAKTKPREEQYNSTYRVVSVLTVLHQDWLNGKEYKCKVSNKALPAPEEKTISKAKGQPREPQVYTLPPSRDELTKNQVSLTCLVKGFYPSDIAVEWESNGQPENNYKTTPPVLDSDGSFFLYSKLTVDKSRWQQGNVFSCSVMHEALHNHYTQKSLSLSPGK
B10: Antibody 2-10 (antibody, human IgG1, kappa)
light: ACPFPALELCGGGSSGGSGGSGGSGSGGEIVLTQSPDFQSVTPKEKVTITCSANSALSYMYWYQQKPDQSPKLWVHGTSNLASGVPSRFSGSGSGTDFTLTINSLEAEDAATYYCHHWSNTQWTFGGGTKVEIKRTVAAPSVFIFPPSDEQLKSGTASVVCLLNNFYPREAKVQWKVDNALQSGNSQESVTEQDSKDSTYSLSSTLTLSKADYEKHKVYACEVTHQGLSSPVTKSFNRGEC
heavy: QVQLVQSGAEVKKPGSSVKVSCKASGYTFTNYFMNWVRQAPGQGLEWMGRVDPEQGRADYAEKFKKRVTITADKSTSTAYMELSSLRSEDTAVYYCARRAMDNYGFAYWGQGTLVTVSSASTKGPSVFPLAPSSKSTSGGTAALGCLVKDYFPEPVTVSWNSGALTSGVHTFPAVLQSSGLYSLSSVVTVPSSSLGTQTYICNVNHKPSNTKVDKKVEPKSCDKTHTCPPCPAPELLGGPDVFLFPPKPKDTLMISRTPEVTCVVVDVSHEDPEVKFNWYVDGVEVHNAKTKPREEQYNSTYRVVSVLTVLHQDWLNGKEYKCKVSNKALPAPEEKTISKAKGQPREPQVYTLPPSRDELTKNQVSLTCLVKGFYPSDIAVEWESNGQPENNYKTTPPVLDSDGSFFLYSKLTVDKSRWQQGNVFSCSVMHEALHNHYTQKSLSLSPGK
notes: also called non-cleavable masked Antibody 2-10
B11: Antibody 2-8 (Activated) (antibody, not shown: small tags and cut ends)
light: EIVLTQSPDFQSVTPKEKVTITCSANSALSYMYWYQQKPDQSPKLWVHGTSNLASGVPSRFSGSGSGTDFTLTINSLEAEDAATYYCHHWSNTQWTFGGGTKVEIKRTVAAPSVFIFPPSDEQLKSGTASVVCLLNNFYPREAKVQWKVDNALQSGNSQESVTEQDSKDSTYSLSSTLTLSKADYEKHKVYACEVTHQGLSSPVTKSFNRGEC
heavy: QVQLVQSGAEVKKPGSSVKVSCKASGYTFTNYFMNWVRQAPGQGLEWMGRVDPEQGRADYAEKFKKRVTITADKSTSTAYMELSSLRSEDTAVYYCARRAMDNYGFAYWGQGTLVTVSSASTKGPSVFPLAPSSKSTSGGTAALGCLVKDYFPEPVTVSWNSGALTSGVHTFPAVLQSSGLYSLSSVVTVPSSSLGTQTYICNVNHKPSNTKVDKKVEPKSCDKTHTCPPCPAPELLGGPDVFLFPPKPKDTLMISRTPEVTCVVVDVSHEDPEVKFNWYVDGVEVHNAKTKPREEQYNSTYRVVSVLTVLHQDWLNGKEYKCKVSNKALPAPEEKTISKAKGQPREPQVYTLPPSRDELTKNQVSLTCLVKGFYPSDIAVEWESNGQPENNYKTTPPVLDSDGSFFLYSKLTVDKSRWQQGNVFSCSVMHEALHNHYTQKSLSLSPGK
B12: Antibody 2-11 (Activated) (antibody, not shown: small tags and cut ends)
light: B11 light
heavy: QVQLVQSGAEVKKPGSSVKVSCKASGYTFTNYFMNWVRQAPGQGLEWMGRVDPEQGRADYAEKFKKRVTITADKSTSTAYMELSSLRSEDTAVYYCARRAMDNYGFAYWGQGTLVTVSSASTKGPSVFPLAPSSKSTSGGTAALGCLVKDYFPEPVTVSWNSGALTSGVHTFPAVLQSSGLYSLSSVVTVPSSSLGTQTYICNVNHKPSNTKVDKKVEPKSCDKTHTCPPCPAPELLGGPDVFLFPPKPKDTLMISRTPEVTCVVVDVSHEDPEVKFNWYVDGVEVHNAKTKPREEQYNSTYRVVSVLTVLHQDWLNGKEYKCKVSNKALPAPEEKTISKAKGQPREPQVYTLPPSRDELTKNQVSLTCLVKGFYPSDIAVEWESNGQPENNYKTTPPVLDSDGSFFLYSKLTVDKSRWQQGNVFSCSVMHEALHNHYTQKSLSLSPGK
B13: Antibody 2-13 (Activated) (antibody, not shown: small tags and cut ends)
light: B11 light
heavy: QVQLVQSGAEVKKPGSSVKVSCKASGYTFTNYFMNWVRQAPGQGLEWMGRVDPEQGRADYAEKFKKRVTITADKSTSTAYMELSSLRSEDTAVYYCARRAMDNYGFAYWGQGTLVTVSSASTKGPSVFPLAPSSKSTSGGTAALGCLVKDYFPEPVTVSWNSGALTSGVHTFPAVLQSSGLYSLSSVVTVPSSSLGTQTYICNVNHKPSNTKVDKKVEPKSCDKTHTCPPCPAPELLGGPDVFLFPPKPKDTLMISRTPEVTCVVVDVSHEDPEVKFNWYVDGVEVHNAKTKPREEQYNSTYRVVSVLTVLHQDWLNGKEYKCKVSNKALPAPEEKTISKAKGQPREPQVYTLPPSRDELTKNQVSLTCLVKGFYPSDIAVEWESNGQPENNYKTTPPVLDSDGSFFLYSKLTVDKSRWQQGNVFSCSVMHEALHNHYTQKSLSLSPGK
B14: Antibody 2-12 (Activated) (antibody, not shown: small tags and cut ends)
light: B11 light
heavy: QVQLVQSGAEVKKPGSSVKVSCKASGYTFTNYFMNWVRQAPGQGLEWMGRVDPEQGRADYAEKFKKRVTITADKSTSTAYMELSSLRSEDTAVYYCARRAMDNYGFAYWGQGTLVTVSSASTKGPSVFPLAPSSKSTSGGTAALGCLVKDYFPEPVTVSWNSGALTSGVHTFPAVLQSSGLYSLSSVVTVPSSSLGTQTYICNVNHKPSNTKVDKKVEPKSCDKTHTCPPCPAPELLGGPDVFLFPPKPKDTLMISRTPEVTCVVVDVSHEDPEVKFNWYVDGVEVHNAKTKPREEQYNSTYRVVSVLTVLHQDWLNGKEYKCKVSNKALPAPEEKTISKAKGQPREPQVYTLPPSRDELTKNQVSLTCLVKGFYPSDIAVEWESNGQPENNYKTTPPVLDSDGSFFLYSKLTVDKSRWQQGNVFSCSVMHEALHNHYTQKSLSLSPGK
B15: Antibody 2-9 (Activated) (antibody)
light: B11 light
heavy: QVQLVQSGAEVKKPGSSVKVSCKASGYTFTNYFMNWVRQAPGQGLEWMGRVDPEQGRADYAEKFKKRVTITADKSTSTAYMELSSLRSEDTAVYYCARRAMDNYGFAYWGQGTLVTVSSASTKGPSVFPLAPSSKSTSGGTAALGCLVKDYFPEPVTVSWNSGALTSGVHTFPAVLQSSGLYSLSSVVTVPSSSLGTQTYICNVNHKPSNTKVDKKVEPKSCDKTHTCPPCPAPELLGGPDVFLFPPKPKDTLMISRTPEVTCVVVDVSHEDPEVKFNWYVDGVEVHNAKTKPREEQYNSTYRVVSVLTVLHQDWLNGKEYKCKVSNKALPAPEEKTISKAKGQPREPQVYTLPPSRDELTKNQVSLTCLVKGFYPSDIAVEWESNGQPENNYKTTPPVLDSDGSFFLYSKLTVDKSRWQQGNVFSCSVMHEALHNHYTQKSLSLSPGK
notes: not shown: remnant of the cleaved linker (part of HEQLTV and spacer SGG)
B16: Antibody 2-11 (antibody, human IgG1, kappa)
light: ACPFPALELCSSPSPSGGGGIGQLTASGGEIVLTQSPDFQSVTPKEKVTITCSANSALSYMYWYQQKPDQSPKLWVHGTSNLASGVPSRFSGSGSGTDFTLTINSLEAEDAATYYCHHWSNTQWTFGGGTKVEIKRTVAAPSVFIFPPSDEQLKSGTASVVCLLNNFYPREAKVQWKVDNALQSGNSQESVTEQDSKDSTYSLSSTLTLSKADYEKHKVYACEVTHQGLSSPVTKSFNRGEC
heavy: not shown
B17: Antibody 2-8 (antibody, human IgG1, kappa)
light: ACPFPALELCGGPGSSPMPYDLYHPSGGEIVLTQSPDFQSVTPKEKVTITCSANSALSYMYWYQQKPDQSPKLWVHGTSNLASGVPSRFSGSGSGTDFTLTINSLEAEDAATYYCHHWSNTQWTFGGGTKVEIKRTVAAPSVFIFPPSDEQLKSGTASVVCLLNNFYPREAKVQWKVDNALQSGNSQESVTEQDSKDSTYSLSSTLTLSKADYEKHKVYACEVTHQGLSSPVTKSFNRGEC
heavy: not shown
B18: Antibody 2-12 (antibody, human IgG1, kappa)
light: ACPFPALELCGSPGSPKPILFFRLSGGEIVLTQSPDFQSVTPKEKVTITCSANSALSYMYWYQQKPDQSPKLWVHGTSNLASGVPSRFSGSGSGTDFTLTINSLEAEDAATYYCHHWSNTQWTFGGGTKVEIKRTVAAPSVFIFPPSDEQLKSGTASVVCLLNNFYPREAKVQWKVDNALQSGNSQESVTEQDSKDSTYSLSSTLTLSKADYEKHKVYACEVTHQGLSSPVTKSFNRGEC
heavy: not shown
B19: Antibody 2-13 (antibody, human IgG1, kappa)
light: ACPFPALELCGGSSPPRAAAVKSPSGGEIVLTQSPDFQSVTPKEKVTITCSANSALSYMYWYQQKPDQSPKLWVHGTSNLASGVPSRFSGSGSGTDFTLTINSLEAEDAATYYCHHWSNTQWTFGGGTKVEIKRTVAAPSVFIFPPSDEQLKSGTASVVCLLNNFYPREAKVQWKVDNALQSGNSQESVTEQDSKDSTYSLSSTLTLSKADYEKHKVYACEVTHQGLSSPVTKSFNRGEC
heavy: not shown
B20: Antibody 2-7 (antibody, human IgG1, kappa)
light: ACPFPALELCGGSGGSVPLSLYSGGEIVLTQSPDFQSVTPKEKVTITCSANSALSYMYWYQQKPDQSPKLWVHGTSNLASGVPSRFSGSGSGTDFTLTINSLEAEDAATYYCHHWSNTQWTFGGGTKVEIKRTVAAPSVFIFPPSDEQLKSGTASVVCLLNNFYPREAKVQWKVDNALQSGNSQESVTEQDSKDSTYSLSSTLTLSKADYEKHKVYACEVTHQGLSSPVTKSFNRGEC
heavy: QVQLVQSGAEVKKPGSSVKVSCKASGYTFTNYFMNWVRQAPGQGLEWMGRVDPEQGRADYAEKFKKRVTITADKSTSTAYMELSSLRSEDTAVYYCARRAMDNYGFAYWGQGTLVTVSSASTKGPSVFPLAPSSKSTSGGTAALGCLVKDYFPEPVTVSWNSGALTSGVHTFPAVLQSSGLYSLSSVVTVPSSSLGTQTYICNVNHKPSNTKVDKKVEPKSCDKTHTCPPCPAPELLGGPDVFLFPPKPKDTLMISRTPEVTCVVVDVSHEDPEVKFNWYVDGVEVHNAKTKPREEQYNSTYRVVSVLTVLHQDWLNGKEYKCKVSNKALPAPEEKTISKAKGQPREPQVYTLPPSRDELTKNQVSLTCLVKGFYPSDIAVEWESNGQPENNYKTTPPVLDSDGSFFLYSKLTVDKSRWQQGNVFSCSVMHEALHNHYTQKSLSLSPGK
B21: Antibody 2-9 (antibody, human IgG1, kappa)
light: B20 light with G14S, G15P, S16P, V17H, P18E, L19Q, S20L, L21T, Y22V
heavy: not shown

Changes are numbered by the printed parent chain. Names and notes keep the numbering of the source.

The first experiment deals with T1, human CTLA4-Fc (R&D Systems, #7268-CT) (human, UniProt P16410 36-162).
T1 construct: Bought; not shown: Fc part
T1 sequence (P16410 36-162 limits assumed): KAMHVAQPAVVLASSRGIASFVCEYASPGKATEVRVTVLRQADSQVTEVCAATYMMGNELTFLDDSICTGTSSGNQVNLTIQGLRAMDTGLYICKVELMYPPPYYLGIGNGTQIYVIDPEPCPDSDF
Briefly: ELISA: plate coated with human CTLA4-Fc (R&D Systems), detection anti-huKappa-HRP, chemiluminescence; signal as fraction of the parental antibody's RLU (Example 5).
As for B1, the 50% effective concentration (EC50 (read off the curve)) – broadly, the concentration at which the effect is half-maximal – is around 0.7 nM.

The next experiment concerns the target T1, human CTLA4-Fc (R&D Systems, #7268-CT). Briefly: low density antigen binding ELISA, human CTLA4-Fc coated at 1 µg/mL, anti-human kappa-HRP. Background: In an ELISA, binding on a coated surface is turned into a signal by an enzyme label.
With B2, the EC50 (as a rule, the concentration needed to bring the measured effect to its halfway point) was 0.32 nM.
On the same count and under the same terms, under B3 stands 0.32 nM; under B4, 0.44 nM.
Same read-out and setting: the result for B5 reads 0.39 nM.
B6 came in with an EC50 of 0.4 nM.
Molecule B7 yielded an EC50 of 0.41 nM. This EC50 and that of the molecule before are within 1.5-fold of each other.
Regarding B8, a half-maximal response (EC50) required 0.4 nM.

The next experiment shares this target. The experiment is described as follows: CTLA4 ELISA (luminescence) after culture of the masked antibody in RPMI as control.
For the molecule B9, the “EC50 (read off the curve)” value was around 6 nM.

The target is the same in a further experiment. Briefly: CTLA4 ELISA (luminescence) after culture of the non-cleavable masked antibody in RPMI as control.
With B10, the “EC50 (read off the curve)” value was around 8 nM.

A further experiment has the same target. The experiment is described as follows: low density antigen binding ELISA, human CTLA4-Fc coated; after protease digestion.
Consider B11, for which the midpoint of the response, the EC50, lay at 0.67 nM.
In the case of B12, a half-maximal response (EC50) required 0.62 nM. This EC50 and that of the molecule before are within 1.5-fold of each other.
The same measure, in the same setting: under B13 stands 0.57 nM; under B14, 0.62 nM; under B15, 0.67 nM.

Another experiment shares this target. Briefly: low density antigen binding ELISA, human CTLA4-Fc coated; no protease.
On to B16, for which the EC50 stood at 34.9 nM.
Turning to B10, the 50% effective concentration (EC50) came out at 29.4 nM.
In the case of B17, the EC50 is 54.8 nM. This EC50 lies about 1.9-fold higher than the previous one.
Take B18: the response was half-maximal at 3.3 nM (EC50).
As to B19, a half-maximal effect (EC50) was put at 14.2 nM.
The same measure, in the same setting: under B20 stands 33.9 nM.
In turn, B21 returned an EC50 of 48.9 nM.

A further experiment shares this target. Briefly: ELISA, human CTLA4-Fc coated; protease -.
Take B10: the response was half-maximal at 29.4 nM (EC50).
In turn, B20 registered an EC50 of 33.9 nM.
